Reference: article PMC4573856 (Genes & Development, 2015)
Positions count from the first letter of the chain named. Where two headings read alike, the source gives them in different places.

T1: Dm eIF4E (residues 69-248) used for ITC (Drosophila melanogaster, UniProt P48598-2 69-248)
T1 sequence (looked up): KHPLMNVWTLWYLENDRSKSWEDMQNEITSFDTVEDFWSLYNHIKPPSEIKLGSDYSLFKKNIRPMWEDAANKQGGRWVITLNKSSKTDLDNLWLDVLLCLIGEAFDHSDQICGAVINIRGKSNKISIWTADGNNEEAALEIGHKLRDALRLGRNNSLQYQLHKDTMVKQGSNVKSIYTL

T2: His6-tagged Dm eIF4E (residues 69-248) (Drosophila melanogaster, UniProt P48598-2 69-248)
T2 sequence (looked up): T1 sequence (looked up)

B1: GB1-stabilized Dm Mxt peptide (residues 577-640) (domain or fragment, Drosophila melanogaster, UniProt Q9VR35 577-640, looked up)
chain: SRVSYDIEHLLYYSMSPHSWTLPTDWQKMQETAPSILRNKDLQDESQRFDGDKYLASIKTAAKR
modifications: also: 15N-labelled, GB1-stabilized (GB1 fusion)
B2: GB1-stabilized Dm Mxt peptide C + NC (residues 577-620) (domain or fragment, Drosophila melanogaster, UniProt Q9VR35 577-620, looked up)
chain: SRVSYDIEHLLYYSMSPHSWTLPTDWQKMQETAPSILRNKDLQD
B3: GB1-tagged Dm Mxt C + NC IS-RR mutant peptide (domain or fragment, Drosophila melanogaster, UniProt Q9VR35 577-620, looked up)
chain: B2 chain with I7R, S14R
B4: MBP-tagged Dm Mxt fragment 577-620 IS-RR mutant C-terminally fused to GB1 (domain or fragment, Drosophila melanogaster, UniProt Q9VR35 577-620, looked up)
chain: B2 chain with I7R, S14R
B5: Dm eIF4G (residues 578-650) C-terminally fused to GB1 (domain or fragment, Drosophila melanogaster, UniProt O61380 578-650, looked up)
chain: PETTLNDKQDSTDLKVKVSAKISSIINYNEGQWSPNNPSGKKQYDREQLLQLREVKASRIQPEVKNVSILPQP

What was measured:
[1] = biological target: T1, Dm eIF4E (residues 69-248) used for ITC; experiment: ITC
[2] = biological target: T2, His6-tagged Dm eIF4E (residues 69-248); experiment: pull-down
[3] = biological target: T2, His6-tagged Dm eIF4E (residues 69-248); experiment: pull-down; remark: listed apart in the source

Binder | Kd [1] [nM] | binding result [3] | also measured
B1 | 0.5 |  | 
B2 | 5 |  | 
B3 |  |  | binding result [2]: binds
B4 |  | binds | 
B5 |  | binds | 
